Results on four molecules are retold here after PMC11190991, “Encapsulation of Transketolase into In Vitro-Assembled Protein Nanocompartments Improves Thermal Stability” (ACS Applied Bio Materials, 2024).

A word on the stoichiometry N: it is the number of molecules, sites or subunits per partner or assembly.

For data set [1], the target named is E. coli transketolase with C-terminal T. maritima cargo loading peptide (E. coli | T. maritima).
The target of data set [2] is Thermotoga maritima encapsulin (T = 1 capsid shell) (Thermotoga maritima) (UniProt Q9WZP2). The data set can be described thus: SEC; in vitro loading during reassembly (10 μM encapsulin monomer, cargo at stated molar ratio), SEC on Superose 6 to remove non-encapsulated cargo, co-eluted cargo seen by SDS-PAGE and quantified by densitometry against standard curves.
Data set [3] deals with Myxococcus xanthus encapsulin (T = 1 and T = 3 capsid shells) (Myxococcus xanthus) (UniProt Q1D6H4). Described as above.
The target is the same in data set [4]. The data set can be described thus: co-purification after co-expression + SDS-PAGE densitometry; in vivo loading: sfGFP-CLP co-expressed with Strep-tagged encapsulin in E. coli, capsids purified (SEC purified samples), cargo quantified by SDS-PAGE densitometry; single experiment.
The target of data set [5] is Thermotoga maritima encapsulin (T = 1 capsid shell) (Thermotoga maritima) (UniProt Q9WZP2). Described as above.
Data set [6] deals with the molecule itself. The experiment in a line: native gel or EMSA; BN-PAGE of samples disassembled in denaturant: 6 M GuHCl, 8 M urea (20 mM Tris-Cl pH 7.5), 0.15 M HCl pH 1.0 or 0.15 M NaOH pH 13.0. (In general: Mobility shift assays separate free from complexed probe on a gel.)
For another data set, the target named is Q9WZP2. The data set can be described thus: SEC; Superose 6 10/300 GL, 20 mM Tris-Cl, 50 mM NaCl, pH 7.5; A280 peak area of higher-order structures after reassembly against before disassembly; Tm_encap from 0.15 M NaOH, Mx_encap from 8 M urea. For orientation: SEC sorts molecules by how far they enter the pores of the column.

With “E. coli transketolase with C-terminal T. maritima cargo loading peptide (enzyme)”, the end-point transketolase activity (erythrulose from HPA and GA) of TK-TmCLP encapsulated in Tm encap, against free TK (100%) in data set [1] amounted to 50 % drop. For the same molecule, the stoichiometry N (dimers per capsid) in data set [2] was found to be 2.6.

Consider “superfolder GFP with C-terminal M. xanthus cargo loading peptide”, for which the stoichiometry N (copies per capsid) in data set [3] was found to be 20; in data set [4] it was 31.

As for “superfolder GFP with C-terminal T. maritima cargo loading peptide”, the stoichiometry N (copies per capsid) in data set [2] came to 15. The stoichiometry N (molecules per capsid) in data set [5] was 2.94.

B1: Thermotoga maritima encapsulin (T = 1 capsid shell) (natural protein, UniProt Q9WZP2 1-265, looked up)
chain: MEFLKRSFAPLTEKQWQEIDNRAREIFKTQLYGRKFVDVEGPYGWEYAAHPLGEVEVLSDENEVVKWGLRKSLPLIELRATFTLDLWELDNLERGKPNVDLSSLEETVRKVAEFEDEVIFRGCEKSGVKGLLSFEERKIECGSTPKDLLEAIVRALSIFSKDGIEGPYTLVINTDRWINFLKEEAGHYPLEKRVEECLRGGKIITTPRIEDALVVSERGGDFKLILGQDLSIGYEDREKDAVRLFITETFTFQVVNPEALILLKF
notes: T = 1 capsid, 1.97 MDa; also called T. maritima encapsulin; source: E. coli BL21 Star (DE3), purified (Strep-TactinXT); disassembled and reassembled in vitro; also co-expressed with sfGFP-TmCLP for in vivo loading; not shown: Strep-Tag II (after a GSG linker), C-terminal, kept; copies: 60
B1: the “stoichiometry N” value in data set [6] came out at 2. Moreover, the “recovery of higher-order structures after reassembly (SEC peak area, 8-14 mL)” value with Q9WZP2 is reported as “we determined the recovery to be 82%”.
